{
  "source": "paper PMC5547898",
  "molecular_target": "Myc-tagged metabotropic glutamate receptor 5 (Myc-mGluR5) (UniProt P41594)",
  "sequence (P41594 21-1212)": "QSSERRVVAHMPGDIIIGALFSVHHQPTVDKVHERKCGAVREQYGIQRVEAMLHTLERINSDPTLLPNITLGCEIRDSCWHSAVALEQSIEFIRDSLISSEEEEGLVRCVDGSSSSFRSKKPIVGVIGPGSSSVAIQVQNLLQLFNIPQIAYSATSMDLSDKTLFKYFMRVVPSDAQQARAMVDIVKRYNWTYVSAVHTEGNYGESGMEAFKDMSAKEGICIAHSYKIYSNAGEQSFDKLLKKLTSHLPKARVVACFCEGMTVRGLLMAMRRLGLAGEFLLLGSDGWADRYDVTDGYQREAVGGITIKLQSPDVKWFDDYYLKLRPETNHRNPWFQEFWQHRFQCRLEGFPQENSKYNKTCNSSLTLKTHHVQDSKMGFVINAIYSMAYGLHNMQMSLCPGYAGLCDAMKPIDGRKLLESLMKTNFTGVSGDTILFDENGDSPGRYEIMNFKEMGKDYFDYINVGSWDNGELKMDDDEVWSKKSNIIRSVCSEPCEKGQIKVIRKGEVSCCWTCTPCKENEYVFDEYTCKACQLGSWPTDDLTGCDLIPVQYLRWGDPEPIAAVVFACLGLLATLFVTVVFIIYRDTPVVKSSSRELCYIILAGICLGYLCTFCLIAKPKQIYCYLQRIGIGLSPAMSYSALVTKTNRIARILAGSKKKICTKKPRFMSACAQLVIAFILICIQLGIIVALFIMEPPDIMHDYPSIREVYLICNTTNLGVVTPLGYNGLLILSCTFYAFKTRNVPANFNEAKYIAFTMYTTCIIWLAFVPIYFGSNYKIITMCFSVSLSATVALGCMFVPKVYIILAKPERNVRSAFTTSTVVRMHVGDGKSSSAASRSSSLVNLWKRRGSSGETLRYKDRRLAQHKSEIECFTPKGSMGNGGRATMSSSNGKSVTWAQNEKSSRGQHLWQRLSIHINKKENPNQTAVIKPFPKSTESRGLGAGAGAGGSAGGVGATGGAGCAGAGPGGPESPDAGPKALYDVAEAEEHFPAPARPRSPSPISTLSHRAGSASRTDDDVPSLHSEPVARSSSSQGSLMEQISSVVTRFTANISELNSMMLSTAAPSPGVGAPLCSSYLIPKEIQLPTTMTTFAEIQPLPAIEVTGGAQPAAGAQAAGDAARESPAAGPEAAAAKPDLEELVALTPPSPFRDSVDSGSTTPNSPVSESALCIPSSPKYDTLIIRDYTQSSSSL",
  "assay": "co-IP",
  "data": [
    {"substance": "cellular prion protein (PrP^C) (from UniProt P04156 23-230) (natural protein)", "values": [
      {"measurement": "fold increase of the co-immunoprecipitate with Aβo against without Aβo", "value": "> 2", "unit": "fold"}
    ]}
  ]
}
